The labels stand for the following.
B1: Pistol ribozyme (parent)
chain: GGGUCGUUGUUCCAUAAUCGCGUGGAUAUGGCACGCAAGUUUCUACCGGGCACCGUAAAUGUCCGACUGGAGCCGUUCGGGCGGCUAUAAACAGACCUCAGGCCCGAAGCGUGGCGGCACCUGCCGCCGGUGGUAAAAAAGAUCGGAAGAGCACACGUCU

The variants in this data set derive from B1. Nature of the data set: aptazyme ON/OFF ratio, guanine; higher = stronger switching; co-transcriptional cleavage with and without guanine.
Turning to GGGUCGAACUUGAAUAAUCGCGUGGAUAUGGCACGCAAGUUUCUACCGGGCACCGUAAAUGUCCGACUGGAGCCGUUCGGGCGGCUAUAAACAGACCUCAGGCCCGAAGCGUGGCGGCACCUGCCGCCGGUGGUAAAAAAGAUCGGAAGAGCACACGUCU, the “aptazyme ON/OFF ratio” value amounted to 1.19.
In the case of GGGUCGAACUUGUAUAAUCGCGUGGAUAUGGCACGCAAGUUUCUACCGGGCACCGUAAAUGUCCGACUGGAGCCGUUCGGGCGGCUAUAAACAGACCUCAGGCCCGAAGCGUGGCGGCACCUGCCGCCGGUGGUAAAAAAGAUCGGAAGAGCACACGUCU it was 1.18.
In the case of GGGUCGAACUUGGAUAAUCGCGUGGAUAUGGCACGCAAGUUUCUACCGGGCACCGUAAAUGUCCGACUGGAGCCGUUCGGGCGGCUAUAAACAGACCUCAGGCCCGAAGCGUGGCGGCACCUGCCGCCGGUGGUAAAAAAGAUCGGAAGAGCACACGUCU it was 1.17.
Turning to GGGUCGAACUUCCAUAAUCGCGUGGAUAUGGCACGCAAGUUUCUACCGGGCACCGUAAAUGUCCGACUGGAGCCGUUCGGGCGGCUAUAAACAGACCUCAGGCCCGAAGCGUGGCGGCACCUGCCGCCGGUGGUAAAAAAGAUCGGAAGAGCACACGUCU, the “aptazyme ON/OFF ratio” value was 1.22.
To GGGUCGAACUUCAAUAAUCGCGUGGAUAUGGCACGCAAGUUUCUACCGGGCACCGUAAAUGUCCGACUGGAGCCGUUCGGGCGGCUAUAAACAGACCUCAGGCCCGAAGCGUGGCGGCACCUGCCGCCGGUGGUAAAAAAGAUCGGAAGAGCACACGUCU belongs 1.15; to GGGUCGAACUUCGAUAAUCGCGUGGAUAUGGCACGCAAGUUUCUACCGGGCACCGUAAAUGUCCGACUGGAGCCGUUCGGGCGGCUAUAAACAGACCUCAGGCCCGAAGCGUGGCGGCACCUGCCGCCGGUGGUAAAAAAGAUCGGAAGAGCACACGUCU, 1.03.
In the case of GGGUCGAACUUCUAUAAUCGCGUGGAUAUGGCACGCAAGUUUCUACCGGGCACCGUAAAUGUCCGACUGGAGCCGUUCGGGCGGCUAUAAACAGACCUCAGGCCCGAAGCGUGGCGGCACCUGCCGCCGGUGGUAAAAAAGAUCGGAAGAGCACACGUCU it was 1.13.
To GGGUCGAACUUAUAUAAUCGCGUGGAUAUGGCACGCAAGUUUCUACCGGGCACCGUAAAUGUCCGACUGGAGCCGUUCGGGCGGCUAUAAACAGACCUCAGGCCCGAAGCGUGGCGGCACCUGCCGCCGGUGGUAAAAAAGAUCGGAAGAGCACACGUCU belongs 1.24; to GGGUCGAACUUAGAUAAUCGCGUGGAUAUGGCACGCAAGUUUCUACCGGGCACCGUAAAUGUCCGACUGGAGCCGUUCGGGCGGCUAUAAACAGACCUCAGGCCCGAAGCGUGGCGGCACCUGCCGCCGGUGGUAAAAAAGAUCGGAAGAGCACACGUCU, 1.13; to GGGUCGAACUUAAAUAAUCGCGUGGAUAUGGCACGCAAGUUUCUACCGGGCACCGUAAAUGUCCGACUGGAGCCGUUCGGGCGGCUAUAAACAGACCUCAGGCCCGAAGCGUGGCGGCACCUGCCGCCGGUGGUAAAAAAGAUCGGAAGAGCACACGUCU, 1.17.
Turning to GGGUCGAACAUACAUAAUCGCGUGGAUAUGGCACGCAAGUUUCUACCGGGCACCGUAAAUGUCCGACUGGAGCCGUUCGGGCGGCUAUAAACAGACCUCAGGCCCGAAGCGUGGCGGCACCUGCCGCCGGUGGUAAAAAAGAUCGGAAGAGCACACGUCU, the “aptazyme ON/OFF ratio” value was 1.2.
In the case of GGGUCGAACUUUGAUAAUCGCGUGGAUAUGGCACGCAAGUUUCUACCGGGCACCGUAAAUGUCCGACUGGAGCCGUUCGGGCGGCUAUAAACAGACCUCAGGCCCGAAGCGUGGCGGCACCUGCCGCCGGUGGUAAAAAAGAUCGGAAGAGCACACGUCU it was 1.23; in that of GGGUCGAACUUUAAUAAUCGCGUGGAUAUGGCACGCAAGUUUCUACCGGGCACCGUAAAUGUCCGACUGGAGCCGUUCGGGCGGCUAUAAACAGACCUCAGGCCCGAAGCGUGGCGGCACCUGCCGCCGGUGGUAAAAAAGAUCGGAAGAGCACACGUCU, 1.15; in that of GGGUCGAACUUUUAUAAUCGCGUGGAUAUGGCACGCAAGUUUCUACCGGGCACCGUAAAUGUCCGACUGGAGCCGUUCGGGCGGCUAUAAACAGACCUCAGGCCCGAAGCGUGGCGGCACCUGCCGCCGGUGGUAAAAAAGAUCGGAAGAGCACACGUCU, 1.42.
For the variant GGGUCGAACAUCCAUAAUCGCGUGGAUAUGGCACGCAAGUUUCUACCGGGCACCGUAAAUGUCCGACUGGAGCCGUUCGGGCGGCUAUAAACAGACCUCAGGCCCGAAGCGUGGCGGCACCUGCCGCCGGUGGUAAAAAAGAUCGGAAGAGCACACGUCU, the “aptazyme ON/OFF ratio” value stood at 1.27.
In the case of GGGUCGAACUUUCAUAAUCGCGUGGAUAUGGCACGCAAGUUUCUACCGGGCACCGUAAAUGUCCGACUGGAGCCGUUCGGGCGGCUAUAAACAGACCUCAGGCCCGAAGCGUGGCGGCACCUGCCGCCGGUGGUAAAAAAGAUCGGAAGAGCACACGUCU it was 1.26.
To GGGUCGAACUUGCAUAAUCGCGUGGAUAUGGCACGCAAGUUUCUACCGGGCACCGUAAAUGUCCGACUGGAGCCGUUCGGGCGGCUAUAAACAGACCUCAGGCCCGAAGCGUGGCGGCACCUGCCGCCGGUGGUAAAAAAGAUCGGAAGAGCACACGUCU belongs 1.1.
As for GGGUCGAACUUACAUAAUCGCGUGGAUAUGGCACGCAAGUUUCUACCGGGCACCGUAAAUGUCCGACUGGAGCCGUUCGGGCGGCUAUAAACAGACCUCAGGCCCGAAGCGUGGCGGCACCUGCCGCCGGUGGUAAAAAAGAUCGGAAGAGCACACGUCU, the “aptazyme ON/OFF ratio” value was determined as 1.22.

Values taken from the RNAGym collection of RNA variant scans (doi:10.1021/acssynbio.7b00057).
